In PMC6402988:

Target: rVSV-EBOV GPΔβ17-β18 (Zaire ebolavirus (EBOV)) (UniProt Q05320)

For ADI-15946 IgG (antibody), the neutralization efficiency of rVSV-EBOV GPΔβ17-β18 compared to GPWT was 10 fold.
